# Measured values: IntAct's records for PubMed 20531392
# B1: Peroxisomal biogenesis factor 19 (Homo sapiens), P40855 (parent)
# chain: MAAAEEGCSVGAEADRELEELLESALDDFDKAKPSPAPPSTTTAPDASGPQKRSPGDTAKDALFASQEKFFQELFDSELASQATAEFEKAMKELAEEEPHLVEQFQKLSEAAGRVGSDMTSQQEFTSCLKETLSGLAKNATDLQNSSMSEEELTKAMEGLGMDEGDGEGNILPIMQSIMQNLLSKDVLYPSLKEITEKYPEWLQSHRESLPPEQFEKYQEQHSVMCKICEQFEAETPTDSETTQKARFEMVLDLMQQLQDLGHPPKELAGEMPPGLNFDLDALNLSGPPGASGEQCLIM
# partner: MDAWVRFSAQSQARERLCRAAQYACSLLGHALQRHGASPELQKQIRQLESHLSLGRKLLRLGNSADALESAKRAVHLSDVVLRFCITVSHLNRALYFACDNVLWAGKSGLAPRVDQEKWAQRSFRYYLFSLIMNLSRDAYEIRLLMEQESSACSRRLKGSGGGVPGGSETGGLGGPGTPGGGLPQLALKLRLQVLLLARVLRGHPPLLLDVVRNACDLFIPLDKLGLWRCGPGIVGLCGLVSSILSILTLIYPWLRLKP
# B2: Peroxisomal biogenesis factor 19 (Homo sapiens), P40855 (parent)
# chain: B1 chain
# Variants of: B1
# Conditions: with px11b_human PEX11B
row,Variant,effect of a mutation on the interaction
1,I178W,disrupting interaction

# Variants of: B1
# Conditions: with px11b_human PEX11B
# Remark: another data set of the same source
row,Variant,effect of a mutation on the interaction
1,L182P,disrupting interaction

# Variants of: B2
# Conditions: with pex13_human PEX13, Q92968
# Chain of pex13_human PEX13, Q92968 (Q92968 whole entry): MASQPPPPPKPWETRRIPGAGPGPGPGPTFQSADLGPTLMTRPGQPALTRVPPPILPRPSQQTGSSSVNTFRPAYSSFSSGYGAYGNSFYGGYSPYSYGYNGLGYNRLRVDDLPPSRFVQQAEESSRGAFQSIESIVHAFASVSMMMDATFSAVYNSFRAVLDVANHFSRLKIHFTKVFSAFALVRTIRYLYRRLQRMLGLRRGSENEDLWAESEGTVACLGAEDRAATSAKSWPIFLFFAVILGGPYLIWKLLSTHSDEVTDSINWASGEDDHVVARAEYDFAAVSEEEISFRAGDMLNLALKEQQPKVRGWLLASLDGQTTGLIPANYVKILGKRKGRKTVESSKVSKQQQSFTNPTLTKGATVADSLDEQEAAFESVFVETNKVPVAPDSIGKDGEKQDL
row,Variant,effect of a mutation on the interaction
1,L182P,decreasing interaction

# Variants of: B2
# Conditions: with pex13_human PEX13, Q92968
# Remark: another data set of the same source
row,Variant,effect of a mutation on the interaction
1,L182W,disrupting interaction

# Variants of: B2
# Conditions: with pex13_human PEX13, Q92968
# Remark: another data set of the same source
row,Variant,effect of a mutation on the interaction
1,I178W,decreasing interaction

# Variants of: B2
# Conditions: with pex13_human PEX13, Q92968
# Remark: another data set of the same source
row,Variant,effect of a mutation on the interaction
1,I178P,disrupting interaction
